Test results reported in publication PMC6862464, “Structural Insights into AQP2 Targeting to Multivesicular Bodies” (International Journal of Molecular Sciences, 2019).
Positions count from the first letter of the chain named.

Assays:
[1] = molecular target: T1, full-length human LIP5 D65A (human, UniProt Q9NP79 1-307, D65A); experiment: other fluorescence titration; Alexa 488-labeled, dephosphorylated AQP2 (around 1 uM) in the cuvette, titrated with unlabeled LIP5; total fluorescence; 20 mM Tris-HCl pH 8, 300 mM NaCl, 0.2% OGNG; triplicate titrations; conditions: both partners purified
T1 construct: LIP5, human, full length, point mutant; spacer before the TEV site and His tag, as in m2; Mutant of m2; dimer as said of full-length LIP5 (cited); source: E. coli BL21*(DE3), purified (HisTrap, SEC)
T1 sequence: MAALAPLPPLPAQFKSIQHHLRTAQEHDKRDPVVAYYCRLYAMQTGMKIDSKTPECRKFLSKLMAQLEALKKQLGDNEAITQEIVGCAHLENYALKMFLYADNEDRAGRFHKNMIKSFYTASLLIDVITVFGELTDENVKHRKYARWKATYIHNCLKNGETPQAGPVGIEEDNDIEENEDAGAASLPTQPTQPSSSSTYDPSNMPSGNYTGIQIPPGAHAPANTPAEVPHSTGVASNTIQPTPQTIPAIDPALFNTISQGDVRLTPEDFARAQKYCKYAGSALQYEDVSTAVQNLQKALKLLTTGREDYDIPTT

[2] = molecular target: T2, full-length human LIP5 M64A (human, UniProt Q9NP79 1-307, M64A); experiment: as above; conditions: both partners purified
T2 construct: LIP5, human, full length, point mutant; spacer before the TEV site and His tag, as in m2; Mutant of m2; dimer as said of full-length LIP5 (cited); source: E. coli BL21*(DE3), purified (HisTrap, SEC)
T2 sequence: T1 sequence with M64A, A65D

Kd [1]: 149 nM
Kd [2]: 271 nM
B1: human aquaporin 2 (AQP2), wild-type (natural protein, UniProt P41181 1-271, looked up)
chain: MWELRSIAFSRAVFAEFLATLLFVFFGLGSALNWPQALPSVLQIAMAFGLGIGTLVQALGHISGAHINPAVTVACLVGCHVSVLRAAFYVAAQLLGAVAGAALLHEITPADIRGDLAVNALSNSTTAGQAVTVELFLTLQLVLCIFASTDERRGENPGTPALSIGFSVALGHLLGIHYTGCSMNPARSLAPAVVTGKFDDHWVFWIGPLVGAILGSLLYNYVLFPPAKSLSERLAVLKGLEPDTDWEEREVRRRQSVELHSPQSLPRGTKA
modifications: cysteine residues labeled with C5 maleimide Alexa 488; dephosphorylated with alkaline phosphatase before labeling
notes: concentrations and molar ratios seem to count monomers; His-tag is called uncleavable; also called WT; labeled AQP2; source: Pichia pastoris, purified (HisTrap, SEC) in OGNG; not shown: His-tag, N-terminal, kept
